Substrate in the data set: CC(=O)Oc1ccc([N+](=O)[O-])cc1
In words: purified protein. It is filed as biochemical, Evansstolkia leycettana. To be noted: optimal conditions, 55 °C, 20 mM citric acid-Na2HPO4 pH 6.0 (standard assay), free enzyme.

This is an account of results in publication PMC6351639, “Synergistic effect of acetyl xylan esterase from Talaromyces leycettanus JCM12802 and xylanase from Neocallimastix patriciarum achieved by introducing carbohydrate-binding module-1” (AMB Express, 2019).

B1: AXE (Evansstolkia leycettana) (protein)
chain: VAVDHDGARLARRITRGSLQQVTNFGSNPTNVGMYIYVPNNLATNPGIVVAIHYCTGSAQAYYSGSPYAQLAEQYGFIVIYPSSPYSGTCWDVSSQAALTHNGGGDSNSIANMVTWTISQFNADTSKVFVTGSSSGAMMTNVMAATYPELFAAATVYSGVPAGCFVSSTNQVDAWNSSCAQGQVIDTPAQWASVAENMYPGYTGPRPRMQIYHGSVDTTLYPQNYYETCKQWAGVFGYNYDSPQQTINNDPEANYQTTIWGPNLQGIFATGVGHTVPIHGTQDMEWFGFA
notes: hydrolase domain only, linker and CBM1 (310-380) removed; signal peptide removed; no tag stated; pPIC9, secreted from Pichia pastoris GS115
In general, Km refers to the substrate concentration at which the rate is half of its maximum. The term Vmax denotes the top rate of the reaction or transport when substrate is in excess. As usually defined, the kcat is the maximal rate divided by the concentration of active sites. The term kcat/Km denotes the second-order rate constant that governs catalysis at low substrate concentration. With B1, the Km is 720 ± 30 µM, the Vmax worked out at 625 µmol/min/mg, the kcat worked out at 326 ± 17 s⁻¹ and the kcat/Km worked out at 453000 ± 18000 M⁻¹ s⁻¹.

B2: AXE + CBM1 (Evansstolkia leycettana) (protein)
chain: VAVDHDGARLARRITRGSLQQVTNFGSNPTNVGMYIYVPNNLATNPGIVVAIHYCTGSAQAYYSGSPYAQLAEQYGFIVIYPSSPYSGTCWDVSSQAALTHNGGGDSNSIANMVTWTISQFNADTSKVFVTGSSSGAMMTNVMAATYPELFAAATVYSGVPAGCFVSSTNQVDAWNSSCAQGQVIDTPAQWASVAENMYPGYTGPRPRMQIYHGSVDTTLYPQNYYETCKQWAGVFGYNYDSPQQTINNDPEANYQTTIWGPNLQGIFATGVGHTVPIHGTQDMEWFGFAGESTGGGTTTTSATTTTTSKPTSTTSSGGSTSTAVAQHWGQCGGIGWTGPTTCVSPYTCTFVNDYYYQCL
notes: mature full-length: hydrolase domain 20-309, S/T-rich linker 310-342, CBM1 343-380; signal peptide removed; no tag stated; pPIC9, secreted from Pichia pastoris GS115
As for B2, the Km turned out to be 500 ± 20 µM, the Vmax is 455 µmol/min/mg, the kcat is 306 ± 9 s⁻¹ and the kcat/Km was 612000 ± 12000 M⁻¹ s⁻¹.
